According to patent publication US20060172958A1 (published 2006):

Assays:
[1] = biological target: T1, yeast two-hybrid library clone encoding amino acids 103-277 of phospholipid scramblase 3 (human, UniProt Q9NRY6 103-277); assay: yeast two-hybrid
T1 construct: also called PLS3 clone; cDNA cloned from the yeast two-hybrid screen; not shown: fusion partner of the Clontech MatchMaker human liver library vector

[2] = biological target: c-abl kinase (UniProt P00519 1-1130, limits assumed); assay: co-immunoprecipitation with PLS3 antibody, Western blot with c-abl antibody
c-abl kinase, sequence (P00519 whole entry): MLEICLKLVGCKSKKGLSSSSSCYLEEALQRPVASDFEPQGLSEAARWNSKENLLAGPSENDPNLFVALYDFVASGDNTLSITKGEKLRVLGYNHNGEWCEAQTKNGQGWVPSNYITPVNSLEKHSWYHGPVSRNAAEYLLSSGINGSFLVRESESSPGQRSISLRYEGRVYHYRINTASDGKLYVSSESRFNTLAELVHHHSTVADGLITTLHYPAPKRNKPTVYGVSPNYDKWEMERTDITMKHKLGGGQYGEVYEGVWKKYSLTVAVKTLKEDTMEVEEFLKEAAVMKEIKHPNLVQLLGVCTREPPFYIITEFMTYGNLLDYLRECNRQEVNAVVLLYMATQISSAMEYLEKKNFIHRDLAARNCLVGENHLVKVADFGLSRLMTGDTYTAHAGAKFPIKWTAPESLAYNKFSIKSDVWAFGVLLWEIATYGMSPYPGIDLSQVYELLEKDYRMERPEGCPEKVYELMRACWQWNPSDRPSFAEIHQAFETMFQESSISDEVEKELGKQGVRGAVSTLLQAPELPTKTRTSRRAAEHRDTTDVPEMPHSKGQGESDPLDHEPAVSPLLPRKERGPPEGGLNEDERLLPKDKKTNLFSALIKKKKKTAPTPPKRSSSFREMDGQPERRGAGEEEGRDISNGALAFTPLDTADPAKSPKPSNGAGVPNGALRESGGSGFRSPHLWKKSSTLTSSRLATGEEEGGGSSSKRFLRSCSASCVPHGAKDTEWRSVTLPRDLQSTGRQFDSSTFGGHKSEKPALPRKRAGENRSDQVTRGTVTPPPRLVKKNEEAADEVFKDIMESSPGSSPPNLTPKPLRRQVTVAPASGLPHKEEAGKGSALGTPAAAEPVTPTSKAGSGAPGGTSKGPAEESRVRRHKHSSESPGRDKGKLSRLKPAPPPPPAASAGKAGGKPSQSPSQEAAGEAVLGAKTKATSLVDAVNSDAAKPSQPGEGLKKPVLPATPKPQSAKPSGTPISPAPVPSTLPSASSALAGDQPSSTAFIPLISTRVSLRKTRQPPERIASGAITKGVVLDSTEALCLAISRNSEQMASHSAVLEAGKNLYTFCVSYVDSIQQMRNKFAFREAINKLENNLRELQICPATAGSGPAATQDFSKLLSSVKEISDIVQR

T1 sequence (Q9NRY6 103-277): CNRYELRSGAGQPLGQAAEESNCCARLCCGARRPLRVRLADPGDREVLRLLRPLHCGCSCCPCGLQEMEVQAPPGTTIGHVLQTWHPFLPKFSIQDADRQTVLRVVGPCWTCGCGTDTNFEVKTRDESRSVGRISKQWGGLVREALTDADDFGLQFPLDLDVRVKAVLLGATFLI

binding result [1]	binding result [2]	Binder
no binding	–	lamin C control bait (pAS2-lamin C) (other, UniProt P02545-2 66-230, looked up, also called control bait lamin C; not shown: bait fusion partner encoded by the pAS2 vector) SEEVVSREVSGIKAAYEAELGDARKTLDSVAKERARLQLELSKVREEFKELKARNTKKEGDLIAAQARLKDLEALLNSKEAALSTALSEKRTLEGELHDLRGQVAKLEAALGEAKKQLQDEMLRRVDAENRLQTMKEELDFQKNIYSEELRETKRRHETRLVEID
–	no binding	phospholipid scramblase 3 (PLS3), human, isoform not stated (enzyme, phosphothreonine, position not stated (shown by the anti-PT blot of immunoprecipitated PLS3), also called endogenous PLS3; wild-type PLS3) not shown
